Data on eight molecules can be found in patent publication WO2016073894A1 (dated 2016).

Assay [1] addresses T1, IL-6R on HEK-Blue IL6 reporter cells (UniProt P08887 20-468, limits assumed).
T1 sequence (looked up): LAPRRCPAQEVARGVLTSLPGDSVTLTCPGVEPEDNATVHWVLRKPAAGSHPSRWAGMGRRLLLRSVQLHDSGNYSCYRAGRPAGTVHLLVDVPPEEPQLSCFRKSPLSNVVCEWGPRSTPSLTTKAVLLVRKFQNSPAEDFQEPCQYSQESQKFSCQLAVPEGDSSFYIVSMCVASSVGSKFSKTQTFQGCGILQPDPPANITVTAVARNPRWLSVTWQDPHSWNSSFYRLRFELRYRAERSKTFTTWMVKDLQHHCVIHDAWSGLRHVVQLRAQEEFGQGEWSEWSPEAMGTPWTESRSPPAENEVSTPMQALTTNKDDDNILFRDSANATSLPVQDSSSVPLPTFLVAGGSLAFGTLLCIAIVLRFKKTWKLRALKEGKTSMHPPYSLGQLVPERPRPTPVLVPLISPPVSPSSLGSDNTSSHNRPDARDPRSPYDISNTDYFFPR
The experiment in a line: cell-based or functional assay.

For assay [2], the target named is T2, human IL-6 (human, UniProt P05231 30-212).
T2 construct: L19, R24 and D34 fit a start at residue 29 of the precursor; also called free IL-6; biotinylated human IL-6
The experiment in a line: yeast Fab display; biotinylated IL-6 remaining after overnight competition with 2 uM IL-6.

In assay [3] the target is T2, human IL-6. Briefly: yeast system; format in the assay not stated.
The target of assay [4] is T2, human IL-6. The experiment in a line: cell-based or functional assay.
The target of a further assay is hyper IL-6. The experiment in a line: cell-based or functional assay.
Assay [5] addresses T2, human IL-6. Briefly: ELISA on plates coated with human IL-6, hybridoma supernatants. For orientation: An ELISA detects its analyte on a solid surface through an enzyme-linked reagent.

Where only a bound is given, the exact number is not on record here.

B1: Tocilizumab (antibody, human IgG1, kappa, V domains shown)
VH: QVQLQESGPGLVRPSQTLSLTCTVSGYSITSDHAWSWVRQPPGRGLEWIGYISYSGITTYNPSLKSRVTMLRDTSKNQFSLRLSSVTAADTAVYYCARSLARTTAMDYWGQGSLVTVSS
VL: DIQMTQSPSSLSASVGDRVTITCRASQDISSYLNWYQQKPGKAPKLLIYYTSRLHSGVPSRFSGSGSGTDFTFTISSLQPEDIATYYCQQGNTLPYTFGQGTKVEIKR
Consider B1, for which the “IC50, cis-signaling, HEK-Blue IL6 cells, 20 pM free IL-6” value in assay [1] stood at 12.9 nM.

B2: EBI-029 Fab I51T/S55G (Fab, V domains shown)
VH: QVQLVQSGAEVKKPGSSVKVSCKASGYALSNYLIEWVRQAPGQGLEWMGVTTPGGGTINYAQKFQGRVTITADESTSTAYMELSSLRSEDTAVYYCARSRWDPLYYYALEYWGQGTTVTVSS
VL: DIVMTQSPDSLAVSLGERATINCRASESVDNYGIPFMNWYQQKPGQPPKLLIYAASNRGSGVPDRFSGSGSGTDFTLTISSLQAEDVAVYYCQQSEEVPLTFGQGTKLEIKR
notes: The mutations were introduced into the wild-type EBI-029 Fab; also called 151T/S55G
In the case of B2, the binding result with human IL-6 [2] was “binds”.

B3: h64 IgG (antibody, V domains shown)
VH: QVQLVQSGAEVKKPGSSVKVSCKASGYAFSNYLIEWVRQAPGQGLEWMGVITPGSGTINYAQKFQGRVTITADESTSTAYMELSSLRSEDTAVYYCARSRWDPLYYYALEYWGQGTTVTVSS
VL: DIVMTQSPDSLAVSLGERATINCRASESVDNYGISFMNWYQQKPGQPPKLLIYAASNQGSGVPDRFSGSGSGTDFTLTISSLQAEDVAVYYCQQSKEVPLTFGQGTKLEIK
notes: Expressed as inline fusions with the human IgG1 constant domains; also called original h64 antibody; the original humanized molecule
For orientation: Kd means the constant that tells how readily two partners part at equilibrium. Low readings indicate higher affinity, high ones lower affinity. B3 yielded a Kd in the assay with human IL-6 [3] of 0.343 nM.

B4: EBI-029 Fab S30P/I51T/S55G (Fab, V domains shown)
VH: QVQLVQSGAEVKKPGSSVKVSCKASGYALPNYLIEWVRQAPGQGLEWMGVTTPGGGTINYAQKFQGRVTITADESTSTAYMELSSLRSEDTAVYYCARSRWDPLYYYALEYWGQGTTVTVSS
VL: DIVMTQSPDSLAVSLGERATINCRASESVDNYGIPFMNWYQQKPGQPPKLLIYAASNRGSGVPDRFSGSGSGTDFTLTISSLQAEDVAVYYCQQSEEVPLTFGQGTKLEIKR
Consider B4, for which the binding result with human IL-6 [2] is reported as “binds”.

B5: EBI-029 Fab A28V/I51T/S55G (Fab, V domains shown)
VH: QVQLVQSGAEVKKPGSSVKVSCKASGYVLSNYLIEWVRQAPGQGLEWMGVTTPGGGTINYAQKFQGRVTITADESTSTAYMELSSLRSEDTAVYYCARSRWDPLYYYALEYWGQGTTVTVSS
VL: DIVMTQSPDSLAVSLGERATINCRASESVDNYGIPFMNWYQQKPGQPPKLLIYAASNRGSGVPDRFSGSGSGTDFTLTISSLQAEDVAVYYCQQSEEVPLTFGQGTKLEIKR
Consider B5, for which, in the assay with human IL-6 [2], the binding result was “binds”.

B6: EBI-030 IgG2 (antibody)
heavy: QVQLVQSGAEVKKPGSSVKVSCKASGYVLPNYLIEWVRQAPGQGLEWMGVTTPGGGTINYAQKFQGRVTITADESTSTAYMELSSLRSEDTAVYYCARSRWDPLYYYALEYWGQGTTVTVSSASTKGPSVFPLAPCSRSTSESTAALGCLVKDYFPEPVTVSWNSGALTSGVHTFPAVLQSSGLYSLSSVVTVPSSNFGTQTYTCNVDHKPSNTKVDKTVERKCCVECPPCPAPPVAGPSVFLFPPKPKDTLMISRTPEVTCVVVDVSHEDPEVQFNWYVDGVEVHNAKTKPREEQFNSTFRVVSVLTVVHQDWLNGKEYKCKVSNKGLPAPIEKTISKTKGQPREPQVYTLPPSREEMTKNQVSLTCLVKGFYPSDIAVEWESNGQPENNYKTTPPMLDSDGSFFLYSKLTVDKSRWQQGNVFSCSVMHEALHNHYTQKSLSLSPGK
light: DIVMTQSPDSLAVSLGERATINCRASESVDNYGIPFMNWYQQKPGQPPKLLIYAASNRGSGVPDRFSGSGSGTDFTLTISSLQAEDVAVYYCQQSEEVPLTFGQGTKLEIKRTVAAPSVFIFPPSDEQLKSGTASVVCLLNNFYPREAKVQWKVDNALQSGNSQESVTEQDSKDSTYSLSSTLTLSKADYEKHKVYACEVTHQGLSSPVTKSFNRGEC
For the molecule B6, in the assay with human IL-6 [4], the “IC50 fold less than that of EBI-029, HEK-Blue IL6 cells” value was more than 50 fold; the “IC90 fold less than that of EBI-029, HEK-Blue IL6 cells” value was approximately 4000 fold; the “fold decrease in IC50 against EBI-029, HEK-Blue IL6 cells, 20 pM IL-6” value is approximately 50 fold; the “fold decrease in IC90 against EBI-029, HEK-Blue IL6 cells, 20 pM IL-6” value is more than 100 fold.

B7: EBI-031 (antibody, human IgG2, kappa)
heavy: QVQLVQSGAEVKKPGSSVKVSCKASGYVLPNYLIEWVRQAPGQGLEWMGVTTPGGGTINYAQKFQGRVTITADESTSTAYMELSSLRSEDTAVYYCARSRWDPLYYYALEYWGQGTTVTVSSASTKGPSVFPLAPCSRSTSESTAALGCLVKDYFPEPVTVSWNSGALTSGVHTFPAVLQSSGLYSLSSVVTVPSSNFGTQTYTCNVDHKPSNTKVDKTVERKCCVECPPCPAPPVAGPSVFLFPPKPKDTLMISRTPEVTCVVVDVSHEDPEVQFNWYVDGVEVHNAKTKPREEQFNSTFRVVSVLTVVAQDWLNGKEYKCKVSNKGLPAPIEKTISKTKGQPREPQVYTLPPSREEMTKNQVSLTCLVKGFYPSDIAVEWESNGQPENNYKTTPPMLDSDGSFFLYSKLTVDKSRWQQGNVFSCSVMHEALHNHYTQKSLSLSPGK
light: DIVMTQSPDSLAVSLGERATINCRASESVDNYGIPFMNWYQQKPGQPPKLLIYAASNRGSGVPDRFSGSGSGTDFTLTISSLQAEDVAVYYCQQSEEVPLTFGQGTKLEIKRTVAAPSVFIFPPSDEQLKSGTASVVCLLNNFYPREAKVQWKVDNALQSGNSQESVTEQDSKDSTYSLSSTLTLSKADYEKHKVYACEVTHQGLSSPVTKSFNRGEC
As to B7, in the assay with hyper IL-6, the “IC50, trans-signaling, HEK-Blue IL6 cells, 200 pM hyper IL-6” value was found to be 32 pM and the “fold more potent than tocilizumab, cellular assays” value was more than 900 fold. In the assay with human IL-6 [4], the “IC50, cis-signaling, HEK-Blue IL6 cells, 20 pM free IL-6” value worked out at 14.2 pM; the “IC50 fold less than that of EBI-029, HEK-Blue IL6 cells” value is more than 75 fold; the “IC90 fold less than that of EBI-029, HEK-Blue IL6 cells” value was approximately 350 fold; the “fold decrease in IC50 against EBI-029, HEK-Blue IL6 cells, 20 pM IL-6” value was approximately 50 fold. In addition, in the assay with human IL-6 [4], the “fold decrease in IC90 against EBI-029, HEK-Blue IL6 cells, 20 pM IL-6” value is more than 100 fold and the “fold greater potency than tocilizumab, cis-signaling, HEK-Blue IL6 cells” value was more than 900 fold.

B8: murine 64 antibody (antibody, V domains shown)
VH: QVQLQQSGAELVRPGTSVKVSCKASGYAFSNYLIEWVKQRPGQGLEWIGVITPGSGTINYNEKFKGKAVLTADKSSSTVYMQLSSLTSDDSAVYFCAKSRWDPLYYYALEYWGQGTSVTVSS
VL: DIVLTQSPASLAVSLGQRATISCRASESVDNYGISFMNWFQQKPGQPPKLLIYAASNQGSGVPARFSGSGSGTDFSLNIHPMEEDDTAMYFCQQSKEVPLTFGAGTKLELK
notes: Murine monoclonal from a hybridoma; also called Hybridoma 64; m64
As for B8, the binding result with human IL-6 [5] is listed as “binds”.
